# From PMC7307649 (Biochemistry, 2020)
# T1: ACKR4 C-terminally fused to SmBiT (UniProt Q9NPB9)
# T1 sequence: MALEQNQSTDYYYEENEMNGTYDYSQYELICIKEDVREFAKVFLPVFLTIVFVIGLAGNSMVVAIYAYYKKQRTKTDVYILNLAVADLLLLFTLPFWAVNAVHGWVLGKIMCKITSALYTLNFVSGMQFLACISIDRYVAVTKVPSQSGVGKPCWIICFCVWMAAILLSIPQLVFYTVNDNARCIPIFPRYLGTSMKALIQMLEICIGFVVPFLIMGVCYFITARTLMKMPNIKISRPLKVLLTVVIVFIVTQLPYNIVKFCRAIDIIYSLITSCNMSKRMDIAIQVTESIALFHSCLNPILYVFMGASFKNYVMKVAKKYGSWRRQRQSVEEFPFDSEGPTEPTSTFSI
# T2: CCR7 C-terminally fused to SmBiT (human, UniProt P32248 25-378)
# T2 sequence (looked up): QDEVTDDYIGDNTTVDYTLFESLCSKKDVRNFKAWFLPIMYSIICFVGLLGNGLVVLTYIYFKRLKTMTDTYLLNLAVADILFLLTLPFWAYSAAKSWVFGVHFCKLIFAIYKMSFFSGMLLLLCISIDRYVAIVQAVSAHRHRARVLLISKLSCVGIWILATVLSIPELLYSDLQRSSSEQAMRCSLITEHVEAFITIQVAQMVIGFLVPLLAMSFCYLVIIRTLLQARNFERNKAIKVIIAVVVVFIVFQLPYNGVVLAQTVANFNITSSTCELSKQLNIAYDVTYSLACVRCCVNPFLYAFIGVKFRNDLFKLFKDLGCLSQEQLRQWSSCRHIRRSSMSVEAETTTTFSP
# T3: ACKR4 C-terminally fused to SmBiT (UniProt Q9NPB9 1-350)
# T3 sequence (looked up): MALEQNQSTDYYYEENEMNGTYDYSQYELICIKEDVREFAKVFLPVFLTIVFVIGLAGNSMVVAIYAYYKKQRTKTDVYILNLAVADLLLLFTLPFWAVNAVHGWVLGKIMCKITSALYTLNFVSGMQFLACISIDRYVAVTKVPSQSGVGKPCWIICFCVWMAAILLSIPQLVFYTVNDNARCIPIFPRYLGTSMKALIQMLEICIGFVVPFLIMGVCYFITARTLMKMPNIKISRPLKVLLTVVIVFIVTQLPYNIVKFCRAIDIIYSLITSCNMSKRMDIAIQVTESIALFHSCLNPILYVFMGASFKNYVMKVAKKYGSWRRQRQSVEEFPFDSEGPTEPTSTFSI
# T4: CCL21WT (full-length human CCL21, residues 1–111) (human), O00585
# T4 chain: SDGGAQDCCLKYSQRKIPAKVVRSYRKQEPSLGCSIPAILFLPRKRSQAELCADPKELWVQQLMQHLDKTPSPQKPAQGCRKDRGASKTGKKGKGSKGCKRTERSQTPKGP
# Assays:
# [1] = target: T1, ACKR4 C-terminally fused to SmBiT
# [2] = target: CCR7 C-terminally fused to SmBiT (human) (UniProt P32248)
# [3] = target: CCR7 C-terminally fused to SmBiT (human) (UniProt P32248); remark: listed apart in the source
# [4] = target: CCR7 C-terminally fused to SmBiT (human) (UniProt P32248); remark: listed apart in the source
# [5] = target: T2, CCR7 C-terminally fused to SmBiT; assay: cell-based or functional assay
# [6] = target: T3, ACKR4 C-terminally fused to SmBiT; assay: cell-based or functional assay
# [7] = target: T4, CCL21WT (full-length human CCL21, …); assay: NMR titration; settings: remark: other sources report otherwise
# [8] = target: T4, CCL21WT (full-length human CCL21, …); assay: NMR titration; settings: remark: other sources report otherwise
"β-arrestin 1 recruitment to ACKR4, EC50 [1]","β-arrestin 1 recruitment to CCR7, EC50 [2]","calcium flux in CHEM-1 CCR7+ cells, EC50 [3]","calcium mobilization in CHEM-1 CCR7+ cells, EC50 [5]","β-arrestin 1 recruitment to CCR7 (panel with the truncation variants), EC50 [5]","β-arrestin 1 recruitment to ACKR4 (panel with the truncation variants), EC50 [6]",Molecule,further results
0.005 µM,0.06 µM,0.0073 µM,–,–,–,CCL21 1–91 C80A (from UniProt O00585 24-114) (domain or fragment),"cAMP inhibition assay, dose–response from 10 pM to 100 nM, EC50 [2]: 7 nM"
0.03 µM,0.1 µM,0.0215 µM,–,–,–,CCL21 1–101 (from UniProt O00585 24-124) (domain or fragment),–
–,–,–,–,–,–,CCL21 C80AC99A (from UniProt O00585 24-134) (ligand),"calcium mobilization in CHEM-1 CCR7+ cells, EC50 [4]: 0.0253 µM"
–,–,–,0.0334 µM,~0.1 µM,~0.03 µM,"CCL21WT (full-length human CCL21, residues 1–111) (ligand, UniProt O00585 24-134, looked up) SDGGAQDCCLKYSQRKIPAKVVRSYRKQEPSLGCSIPAILFLPRKRSQAELCADPKELWVQQLMQHLDKTPSPQKPAQGCRKDRGASKTGKKGKGSKGCKRTERSQTPKGP",Kd [7]: 2000 to 10000 µM; Kd [8]: > 1000 µM
–,–,–,0.00585 µM,~0.06 µM,~0.005 µM,"CCL21trunc (CCL21 residues 1–79) (domain or fragment, human, UniProt O00585 24-102, looked up) SDGGAQDCCLKYSQRKIPAKVVRSYRKQEPSLGCSIPAILFLPRKRSQAELCADPKELWVQQLMQHLDKTPSPQKPAQG",–
